This is an account of results in PMC8657803, “Structural Insight into the Binding of TGIF1 to SIN3A PAH2 Domain through a C-Terminal Amphipathic Helix” (International Journal of Molecular Sciences, 2021).

For this experiment, the target named is T1, TGIF1_(256–401), recombinant truncation covering RD2 (human, UniProt Q15583-1 256-401).
T1 construct: two additional residues left at the N-terminus after thrombin removal of the purification tag; 15N-labelled in the NMR titration; also called TGIF1 RD2 truncation; TGIF1 M256–A401
T1 sequence (Q15583 other isoform, or with tags, fused parts or gaps): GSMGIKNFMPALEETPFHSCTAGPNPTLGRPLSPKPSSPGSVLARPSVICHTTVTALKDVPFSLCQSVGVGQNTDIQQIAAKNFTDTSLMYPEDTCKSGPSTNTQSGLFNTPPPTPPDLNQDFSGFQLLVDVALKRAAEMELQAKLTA
The experiment in a line: NMR titration; 0.1 mM 15N-labelled TGIF1 truncation mixed with non-labelled SIN3A PAH2 at molar ratios 1:0 to 1:2; 1H-15N HSQC; 20 mM HEPES, 80 mM NaCl, 2 mM DTT, 0.05% NaN3, pH 6.4, 90% H2O/10% D2O; 293 K (25 °C) as printed. The note with it: both partners purified.

B1: SIN3A PAH2 (residues S295–N384), recombinant (domain or fragment, human, UniProt Q96ST3 295-384, looked up)
chain: SLQNNQPVEFNHAINYVNKIKNRFQGQPDIYKAFLEILHTYQKEQRNAKEAGGNYTPALTEQEVYAQVARLFKNQEDLLSEFGQFLPDAN
notes: SIN3A, human, paired amphipathic helix domain 2 (PAH2), residues S295-N384; Non-labelled
Turning to B1, the binding result is “binds”.
